Source: paper PMC5906670, “Structural basis of epilepsy-related ligand–receptor complex LGI1–ADAM22” (Nature Communications, 2018)

B1: LGI1 (wild type, pull-down with ADAM22/23 ECD-FLAG) [human] / ADAM22 ECD-FLAG [human] (parent complex)
chain 1: KKPAKPKCPAVCTCTKDNALCENARSIPRTVPPDVISLSFVRSGFTEISEGSFLFTPSLQLLLFTSNSFDVISDDAFIGLPHLEYLFIENNNIKSISRHTFRGLKSLIHLSLANNNLQTLPKDIFKGLDSLTNVDLRGNSFNCDCKLKWLVEWLGHTNATVEDIYCEGPPEYKKRKINSLSSKDFDCIITEFAKSQDLPYQSLSIDTFSYLNDEYVVIAQPFTGKCIFLEWDHVEKTFRNYDNITGTSTVVCKPIVIETQLYVIVAQLFGGSHIYKRDSFANKFIKIQDIEILKIRKPNDIETFKIENNWYFVVADSSKAGFTTIYKWNGNGFYSHQSLHAWYRDTDVEYLEIVRTPQTLRTPHLILSSSSQRPVIYQWNKATQLFTNQTDIPNMEDVYAVKHFSVKGDVYICLTRFIGDSKVMKWGGSSFQDIQRMPSRGSMVFQPLQINNYQYAILGSDYSFTQVYNWDAEKAKFVKFQELNVQAPRSFTHVSINKRNFLFASSFKGNTQIYKHVIVDLSA
chain 2: SKRQLRRYPRNVEEETKYIELMIVNDHLMFKKHRLSVVHTNTYAKSVVNMADLIYKDQLKTRIVLVAMETWATDNKFAISENPLITLREFMKYRRDFIKEKSDAVHLFSGSQFESSRSGAAYIGGICSLLKGGGVNEFGKTDLMAVTLAQSLAHNIGIISDKRKLASGECKCEDTWSGCIMGDTGYYLPKKFTQCNIEEYHDFLNSGGGACLFNKPSKLLDPPECGNGFIETGEECDCGTPAECVLEGAECCKKCTLTQDSQCSDGLCCKKCKFQPMGTVCREAVNDCDIRETCSGNSSQCAPNIHKMDGYSCDGVQGICFGGRCKTRDRQCKYIWGQKVTASDKYCYEKLNIEGTEKGNCGKDKDTWIQCNKRDVLCGYLLCTNIGNIPRLGELDGEITSTLVVQQGRTLNCSGGHVKLEEDVDLGYVEDGTPCGPQMMCLEHRCLPVASFNFSTCLSSKEGTICSGNGVCSNELKCVCNRHWIGSDCNTYFPHNDDAKTGITLSG
B2: LGI1 (wild type, pull-down with ADAM22/23 ECD-FLAG) [human] / ADAM23 ECD-FLAG [human] (parent complex)
chain 1: B1 chain 1
chain 2: AVNPSRGIFEEMKYLELMIVNDHKTYKKHRSSHAHTNNFAKSVVNLVDSIYKEQLNTRVVLVAVETWTEKDQIDITTNPVQMLHEFSKYRQRIKQHADAVHLISRVTFHYKRSSLSYFGGVCSRTRGVGVNEYGLPMAVAQVLSQSLAQNLGIQWEPSSRKPKCDCTESWGGCIMEETGVSHSRKFSKCSILEYRDFLQRGGGACLFNRPTKLFEPTECGNGYVEAGEECDCGFHVECYGLCCKKCSLSNGAHCSDGPCCNNTSCLFQPRGYECRDAVNECDITEYCTGDSGQCPPNLHKQDGYACNQNQGRCYNGECKTRDNQCQYIWGTKAAGSDKFCYEKLNTEGTEKGNCGKDGDRWIQCSKHDVFCGFLLCTNLTRAPRIGQLQGEIIPTSFYHQGRVIDCSGAHVVLDDDTDVGYVEDGTPCGPSMMCLDRKCLQIQALNMSSCPLDSKGKVCSGHGVCSNEATCICDFTWAGTDCSIRDPVRNLHPPKDEGPKGPSA

Variants of: B1
Assay: pull-down; anti-FLAG antibody agarose; proteins secreted from HEK293T cells; n = 4 independent experiments; read off a plot

| percent of parent | Variant |
| --- | --- |
| ~8 % of WT | chain 1 L268A |
| ~64 % of WT | chain 1 K297A |
| ~37 % of WT | chain 1 F222A |
| ~9 % of WT | chain 1 M443A |
| ~4 % of WT | chain 1 Y399A |
| ~35 % of WT | chain 1 V250A |
| ~15 % of WT | chain 1 R296A, chain 1 K297A |
| ~85 % of WT | chain 1 R296A |
| ~33 % of WT | chain 1 R344A |

Variants of: B2
Assay: as above

| percent of parent | Variant |
| --- | --- |
| ~10 % of WT | chain 1 M443A |
| ~4 % of WT | chain 1 Y399A |
| ~9 % of WT | chain 1 R296A, chain 1 K297A |
| ~14 % of WT | chain 1 L268A |
| ~16 % of WT | chain 1 F222A |
| ~20 % of WT | chain 1 V250A |
| ~46 % of WT | chain 1 K297A |
| ~6 % of WT | chain 1 R344A |
| ~7 % of WT | chain 1 K319A |
